Consider ten molecules from US20210198377A1 (XDCEXPLORER SHANGHAI, published 2021).

The target of assay [1] is T1, human TPBG-hFc (human, UniProt Q13641 32-355).
T1 construct: also called immunogen A; hFc tagged TPBG protein; not shown: The human IgG Fc fragment of the pCpC vector (Invitrogen V044-50) and any linker to it
T1 sequence: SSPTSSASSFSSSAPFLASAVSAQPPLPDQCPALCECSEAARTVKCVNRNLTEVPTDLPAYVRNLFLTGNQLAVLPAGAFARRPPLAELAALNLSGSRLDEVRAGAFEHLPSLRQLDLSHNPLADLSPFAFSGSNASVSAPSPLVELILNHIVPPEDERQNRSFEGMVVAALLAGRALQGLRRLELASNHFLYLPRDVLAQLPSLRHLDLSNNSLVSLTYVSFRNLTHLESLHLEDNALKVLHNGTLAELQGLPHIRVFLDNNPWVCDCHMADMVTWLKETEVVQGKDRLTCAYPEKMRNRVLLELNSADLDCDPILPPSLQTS
The assay can be described thus: ELISA, coated human TPBG-hFc 1.0 ug/mL; antibody 0.2 nM. The procedure: (§1) The purified immunogen A (as for its method of preparation please refer to step 1 in Example 1) diluting with PBS to a final concentration of 1.0 μg/mL was aliquoted into a 96-well ELISA plate at 100 μL per well, and sealed with a parafilm and incubated at 4° C. overnight. The plate was washed twice with plate washing buffer (PBS containing 0.01% (v/v) Tween 20), and blocked with blocking buffer (PBS containing 0.01% (v/v) Tween 20 and 1% (w/w) BSA) at room temperature for 2 h. The blocking buffer was discarded, and 100 μL per well of the purified antibody obtained from Embodiment 2 was added. After incubating at 37° C. for 2 h, the plate was washed for three times with plate washing buffer (PBS containing 0.01% (v/v) Tween 20). HRP (horseradish peroxidase)-labeled secondary antibody (purchased from Sigma) was added and incubated at 37° C. for 2 h, and the plate was washed for three times using plate washing buffer (PBS containing 0.01% (v/v) Tween 20). 100 μL of TMB substrate was aliquoted into each well, incubated at room temperature for 30 min, and 100 μL of stop buffer (1.0N HCl) per well was subsequently added. A₄₅₀ₙₘ values were read using the ELISA plate reader (SpectraMax 384plus purchased from Molecular Device), and the results were shown in FIG. 6 and table 6. […] In Table 6 the IgG control herein is a mice IgG control, the data in the Table are OD₄₅₀ₘₙ values, and Blank means the OD₄₅₀ₘₙ value when there is only PBS buffer in the plate.
Background: In an ELISA, binding on a coated surface is turned into a signal by an enzyme label.

Assay [2] deals with T1, human TPBG-hFc. Description: ELISA, coated human TPBG-hFc 1.0 ug/mL; antibody 0.02 nM. The procedure: as §1
Assay [3] deals with T2, human TPBG (full length, on cells) (human, UniProt Q13641 32-420).
T2 construct: whole, on cells; On transfected HEK293 or CHO-K1 cells; for the tumour lines NCI-H1568 and NCI-H1299 it is the cells' own TPBG; also called hTPBG; 5T4
T2 sequence (looked up): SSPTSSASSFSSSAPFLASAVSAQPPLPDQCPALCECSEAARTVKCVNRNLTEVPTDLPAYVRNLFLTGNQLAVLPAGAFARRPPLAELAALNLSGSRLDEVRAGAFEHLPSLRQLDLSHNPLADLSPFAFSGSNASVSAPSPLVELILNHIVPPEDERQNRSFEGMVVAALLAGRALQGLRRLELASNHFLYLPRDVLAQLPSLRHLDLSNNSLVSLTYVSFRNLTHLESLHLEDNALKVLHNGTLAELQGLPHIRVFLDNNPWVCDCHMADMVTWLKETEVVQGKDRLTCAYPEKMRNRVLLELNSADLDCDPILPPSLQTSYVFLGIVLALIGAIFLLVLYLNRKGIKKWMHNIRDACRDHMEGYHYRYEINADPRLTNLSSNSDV
Description: FACS on CHO-K1-hTPBG cells. The source says: The stable cell lines CHO-k1-hTPBG, CHO-k1-cTPBG, CHO-k1-mTPBG (i.e. the CHO-k1-hTPBG 3A2F1, CHO-k1-cTPBG 3F13G4 and CHO-k1-mTPBG 3A3 shown in table 7) and CHO-K1 cells were expanded to a 90% of confluency in T-75 cell culture flasks, the culture medium were removed, and cells were then rinsed twice with HBSS buffer (Hanks Balanced Salt Solution, purchased from Invitrogen) and lysed with enzyme-free cell dissociation buffer (Versene solution purchased from Life technology) and harvested. Harvested cells were rinsed with HBSS buffer twice and counted before diluting with HBSS buffer to 2×10⁶ cells /mL, and 10% goat serum blocking buffer was then added, wherein the percentage is the mass percentage. Cells were incubated on ice for 30 min, and then washed twice with HBSS buffer by centrifugation. The harvested cells were resuspended with FACS buffer (HBSS+1% BSA, wherein the percentage is mass percentage) to a concentration of 2×10⁶ cells /mL. 100 μL per well of the cells was aliquoted to 96-well FACS reaction plates, and 100 μL per well of test sample—the purified TPBG antibody obtaining from Embodiment 2 was added before incubating on ice for 2 h. The plate was washed with the FACS buffer twice by centrifugation, and 100 μL per well of fluorescence (Alexa 488) labeled secondary antibody (purchased from Invitrogen) was then added and incubated on ice for 1 h. The plate was washed with the FACS buffer for three times by centrifugation, follow by resuspending in 100 μL of fixation buffer (4% (v/v) paraformaldehyde). Cells were washed with FACS buffer twice after 10 min, follow by resuspending with 100 μL of FACS buffer. The results were measured and analyzed by FACS (FACS Calibur, purchased from BD). Data analysis was performed by software (CellQuest) to obtain mean fluorescence intensity (MFI) of the cells, follow by calculating EC50 value by software (GraphPad Prism) analysis and data fitting. The analysis results were shown in Table 8 and FIGS. 7-10, and data in FIGS. 7-10 show the mean fluorescence intensity (MFI) of cells.

Assay [4] has as its target T1, human TPBG-hFc. Description: ELISA, coated human TPBG-hFc 1.0 ug/mL; antibody 0.0002 nM. The method, then:
as §1

B1: 36A10D8B12 (antibody, V domains shown)
VH: DVQLQESGPGMVKPSQSLSLTCTVTGYSITSGYDWHWIRHFPGNKLEWMGYISYSGNTNYNPSLKSRISITHNTSKNHFFLRLNSVTTEDTATYYCARGYGNWDAMDYWGQGTSVTVSS
VL: DIVMTQSQKFMSTSVGDRVSVTCKASQIVDTNVAWYQQKPGQSPKALISSASYRYSGVPDRFTGSGSGTDFTLTISNVQSEDLAEYFCQQYNSYPLTFGAGTKLELT
notes: Mouse hybridoma antibody purified from culture supernatant; also called TPBG antibody; lead antibody
For the molecule B1, the OD450nm with human TPBG-hFc [1] came out at 2.15 OD450nm; in the assay with human TPBG-hFc [2] it was 0.51 OD450nm; with human TPBG-hFc [4] it was 0.16 OD450nm. A half-maximal response in assay [3] (EC50) required 0.94 nM.

B2: 37H9C5G2 (antibody, V domains shown)
VH: QVQLQQSDAELVRPGASVKMSCKVSGYTFTDHTIHWMKQRPEQGLEWIGYIYPRDGSGTYNEKFKGKATLTADKSSSTAYMQLNSLTSEDSAVYFCARDGSSHYWYFDVWGTGTTVTVSS
VL: DIQMTQSPASLSASVGETVTITCRASEIIYNYLAWYQQKQGKSPQLLVYNAKTLAEGVPSRFSGSYSGTQFSLNINSLQSEDFGIYYCQHHHDTPLTFGAGTKLDLK
notes: as for B1
Regarding B2, the OD450nm with human TPBG-hFc [1] came to 1.55 OD450nm; with human TPBG-hFc [2], 0.35 OD450nm; with human TPBG-hFc [4], 0.09 OD450nm. The response in assay [3] was half-maximal at 0.94 nM (EC50).

B3: 12B12C7C3 (antibody, V domains shown)
VH: DVQLVESGGGLVQPGGSRKLSCAASGFTFSNFGMHWVRQAPEKGLEWVAYISSGSTSFYYADTVKGRFTISRDNPKNTLFLQMTSLRSEDTAMYYCSRTNSLLRGFFDAWGAGTTVTVSS
VL: DIVLTQSPASLAVSLGQRATISCRASQSVSSSSYTYLHWYQQKPGQPPKLLIKSASNLESGVPARFSGTGSGTDFTLNIHPVEEEDTATYYCQHSWEIPLTFGAGTKLELK
notes: as for B1
As for B3, the OD450nm worked out at 1.67 OD450nm with human TPBG-hFc [1], 0.29 OD450nm with human TPBG-hFc [2] and 0.1 OD450nm with human TPBG-hFc [4]. In assay [3], the EC50 (as a rule, the concentration giving half of the maximal effect) worked out at 0.65 nM.

B4: 103E2E9C2 (antibody, V domains shown)
VH: EVQLQQSGPVLVKPGASVKMSCEASGYSFIDYYMSWVKQSRGRSLEWIGVFNPYSGEIIYNQKFKGKATLTVDKSSSTAYMELSSLTSEDSGVYSCARLRISYYAIDYWGQGTSVAVSS
VL: ENVLTQSPAIMSASPGEKVTMTCRATSSVSSGHFHWYQQKSGASPKVWIYSTSNLASGVPARFSGSGSGTSFSLTISSVEAEDVATYFCQQYSGYPLTFGGGTKLEIK
notes: as for B1
Turning to B4, the OD450nm in the assay with human TPBG-hFc [1] is 1.89 OD450nm; in the assay with human TPBG-hFc [2] it was 0.48 OD450nm; in the assay with human TPBG-hFc [4], 0.1 OD450nm. Moreover, it took 0.85 nM to reach a half-maximal effect in assay [3] (EC50).

B5: 5G4H10G5 (antibody, V domains shown)
VH: EVQLVESGGDLVQPGGSLKLFCAASGFTFSTYGLSWVRQTPDKRLELVATITNNDGSAYYPDSVKGRFTISRDKAKNTLFLQMTSLKSEDTAMYYCARETGFGSSYLFDYWGQGTLVTVSA
VL: NIVMTQTPKFLLVSAGDRVTITCKASQSVSNDVAWYQQKPGQSPKLLIYFATNRYTGVPNRFTGSGYGTEFTFTISSVQAEDLAVYFCQQDYSSPTFGGGTKLEIK
notes: as for B1
Turning to B5, the figures for the OD450nm with human TPBG-hFc [1], with human TPBG-hFc [2] and in the assay with human TPBG-hFc [4] were 1.76 OD450nm, 0.34 OD450nm and 0.08 OD450nm, respectively. The molecule also displayed an EC50 in assay [3] of 1.75 nM.

B6: 28D4E6A9 (antibody, V domains shown)
VH: DVQLVESGGGLVRPGGSLKLSCAASGFTFSNYVMSWARQSPEKRLEWVAEISTGGSHTYYSDTVTGRFTISRDNAKKALYLEMSSLRSEDTAIYYCIMFYYGSSYSMDYWGQGTSVTVSS
VL: DIQMTQSTSSLSASLGDRITISCRASQDIRNYLNWYQQKPDGTVKLLIYHTSRLHSGVPSRFSGSGSGTDYSLTISNLEQEDIATYFCQQGDTLPLTFGAGTRLELK
notes: as for B1
As for B6, the OD450nm with human TPBG-hFc [1] was found to be 1.97 OD450nm; in the assay with human TPBG-hFc [2], 0.46 OD450nm; with human TPBG-hFc [4], 0.1 OD450nm. The molecule further displayed a half-maximal effective concentration (EC50) in assay [3] of 0.63 nM.

B7: 39A11G5F2 (antibody, V domains shown)
VH: QVQLQQSGAELMKPGASMRLSCKATGYTFTGYWLEWIKRRPGHGLEWIGEILPGRGSTNYNEKFKGKATFTAETSSNTAYMQLTSLTTEDSAIYYCARGGRDFDNWGQGTTLTVSS
VL: DIQMTQSTSSLSASLGDRVTISCSASQGINNHLNWYQQKPDGTVKLLIYYTSSLHSGVPSRFSGSGSGTDYSLTISNLEPEDIAIYYCQQFSKLPYTFGGGTKVEMK
notes: as for B1
With B7, the OD450nm in the assay with human TPBG-hFc [1] worked out at 1.36 OD450nm; with human TPBG-hFc [2], 0.3 OD450nm; in the assay with human TPBG-hFc [4], 0.09 OD450nm. The molecule further returned an EC50 in assay [3] of 2.34 nM.

B8: 52C9E9F6 (antibody, V domains shown)
VH: QVQLQQSGAELMKPGASVKLSCKATGYTFTGYWIEWIKQRPGHGLEWIGEILPGRGSTDYNEKFKGKATFTADTSSNTAYMQLSSLTTEDSAIYYCTRGRLDFTYWGQGTLVTVSA
VL: DIQMTQTTSSLSASLGDRVTISCSASQGIRNYLNWYQQKPDGTVKLLIYYTSSLHSGVPSRFSGSGSGTDYSLTISNLEPEDIATYYCQQYSKVPWTFGGGTKLEIK
notes: as for B1
Turning to B8, the OD450nm came to 1.39 OD450nm in the assay with human TPBG-hFc [1], 0.27 OD450nm with human TPBG-hFc [2] and 0.09 OD450nm in the assay with human TPBG-hFc [4]. This molecule also gave an EC50 in assay [3] of 3.27 nM.

B9: 106D5G3D10 (antibody, V domains shown)
VH: EVQLVESGGGLVKPGGSLKLSCAASGFTFSDYGMHWVRQAPEKGLEWVGYISSGTYVVYYADTVKGRFTISRDNAKNTLFLQMTSLRSEDTAIYYCSTYGSNPFDYWGQGTTLTVSS
VL: QLVLTQSPAIMSASPGEKVTITCSATSSVSSMHWFQQKPVTSPKLWIYSTSNLASGVPTRFSGSGSGTSYSLTISRMEAEDAATYYCQQRSGYPPIFTFGSGTKLEIK
notes: as for B1
For B9, the OD450nm in the assay with human TPBG-hFc [1] came to 2.36 OD450nm; in the assay with human TPBG-hFc [2], 0.56 OD450nm; with human TPBG-hFc [4], 0.11 OD450nm. Moreover, the 50% effective concentration (EC50) in assay [3] is 1.72 nM.

B10: 99E12C7H1 (antibody, V domains shown)
VH: QIQLVQSGPELKKPGETVKISCKPSGYTFTAYGLSWVKQAPGQGFQWMGWINTYSGVPTYTDDFKGRFAFSLETSAGTASLQITNLKNEDTATYFCARSSIPPFEYWGPGTTLTVSS
VL: SFVMTQSPKFLLVSVGDRVTITCKASQSVSNDVAWYQQKPGQPPRVLIYFASNRYTGVPDRFTGSGYGTDFTFTISTVQAEDLALYFCQQDYSSPWTFGGGTKLEIK
notes: as for B1
Consider B10, for which the OD450nm with human TPBG-hFc [1] came out at 2.62 OD450nm; with human TPBG-hFc [2] it was 0.78 OD450nm; in the assay with human TPBG-hFc [4] it was 0.11 OD450nm. The molecule further registered an EC50 in assay [3] of 3.54 nM.
